Measured values reported in paper doi:10.1101/2024.04.22.590536 (bioRxiv, 2024).
Where no end group is shown, it is not given here.

Molecular target: T1, GST-tagged Ifh1 activation domain (AA 703-811) (S. cerevisiae, UniProt P39520 703-811)
T1 sequence (looked up): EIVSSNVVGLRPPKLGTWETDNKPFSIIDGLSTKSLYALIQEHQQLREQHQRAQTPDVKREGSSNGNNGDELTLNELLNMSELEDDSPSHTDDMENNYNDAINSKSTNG
Assay: fluorescence polarisation

Kd: ~1400 nM
Binder: NNNSRNNFNNRRGGRGARKGNNTANATNSANTVQKNRNIDVSNLPSLA (peptide, UniProt P39015 226-273, looked up, also: TAMRA label, position not given here) [TAMRA-labelled Stm1-IDR peptide (AA 226-273)]
